Test system: T1, Nc1ncnc2c1ncn2[C@H]1C[C@H](O)[C@@H](COP(=O)(O)O)O1
T1 construct: C-terminal 6x His tag (pET24a), kept; E. coli BL21(DE3) host; Ni-NTA
Assay: purified protein
Assay type: biochemical, Escherichia coli
Conditions: 2 mM ATP, 10 mM Mg acetate, 50 mM K acetate, 20 mM Tris-acetate, 37°C, three protein batches (N = 3)

Substance: adenylate kinase (adk) (Escherichia coli K-12)
- Km: 359 ± 84 µM
- Vmax: 47.9 µmol/min/mg

Reference: publication PMC10952841, “Biocatalytic synthesis of 2′‐deoxynucleotide 5′‐triphosphates from bacterial genomic DNA: Proof of principle” (Biotechnology and Bioengineering, 2023)
